Data taken from patent publication US20130005646A1 (Novo Nordisk, published 2013).
Starred links: 1 amine or outer side, 2 acyl side, 3 side chain; linkers in the order of their positions; H or OH if unused. Positions of bridges follow the written chain, without caps; N, C: chain ends. *: point of attachment. C20 diacid = O=C(O)CCCCCCCCCCCCCCCCCCC(=O)*; γGlu = O=C(O)[C@H](CCC(=O)[*:2])N[*:1]

B1: N-alpha-[(S)-4-Carboxy-4-(19-carboxynonadecanoylamino)butyryl]-His-His-[His1,Glu14,His17,Ala25,Pro26,Ser28,Ser29]-pramlintide (peptide)
peptide: {C20 diacid-γGlu}-HHHCNTATCATQRLAEFLHHSSNNFGAPLSSTNVGSNTY-NH2
modifications: disulfide 4-9
SMILES: CC(C)C[C@H](NC(=O)[C@H](CCCNC(=N)N)NC(=O)[C@H](CCC(N)=O)NC(=O)[C@@H](NC(=O)[C@H](C)NC(=O)[C@@H]1CSSC[C@H](NC(=O)[C@H](Cc2c[nH]cn2)NC(=O)[C@H](Cc2c[nH]cn2)NC(=O)[C@H](Cc2c[nH]cn2)NC(=O)CC[C@H](NC(=O)CCCCCCCCCCCCCCCCCCC(=O)O)C(=O)O)C(=O)N[C@@H](CC(N)=O)C(=O)N[C@@H]([C@@H](C)O)C(=O)N[C@@H](C)C(=O)N[C@@H]([C@@H](C)O)C(=O)N1)[C@@H](C)O)C(=O)N[C@@H](C)C(=O)N[C@@H](CCC(=O)O)C(=O)N[C@@H](Cc1ccccc1)C(=O)N[C@@H](CC(C)C)C(=O)N[C@@H](Cc1c[nH]cn1)C(=O)N[C@@H](Cc1c[nH]cn1)C(=O)N[C@@H](CO)C(=O)N[C@@H](CO)C(=O)N[C@@H](CC(N)=O)C(=O)N[C@@H](CC(N)=O)C(=O)N[C@@H](Cc1ccccc1)C(=O)NCC(=O)N[C@@H](C)C(=O)N1CCC[C@H]1C(=O)N[C@@H](CC(C)C)C(=O)N[C@@H](CO)C(=O)N[C@@H](CO)C(=O)N[C@H](C(=O)N[C@@H](CC(N)=O)C(=O)N[C@H](C(=O)NCC(=O)N[C@@H](CO)C(=O)N[C@@H](CC(N)=O)C(=O)N[C@H](C(=O)N[C@@H](Cc1ccc(O)cc1)C(N)=O)[C@@H](C)O)C(C)C)[C@@H](C)O
B2: N-alpha-[(S)-4-Carboxy-4-(19-carboxynonadecanoylamino)butyryl]-His-His-[His1,Glu14,Arg17]-pramlintide (peptide)
peptide: {C20 diacid-γGlu}-HHHCNTATCATQRLAEFLRHSSNNFGPILPPTNVGSNTY-NH2
modifications: disulfide 4-9
SMILES: CC[C@H](C)[C@H](NC(=O)[C@@H]1CCCN1C(=O)CNC(=O)[C@H](Cc1ccccc1)NC(=O)[C@H](CC(N)=O)NC(=O)[C@H](CC(N)=O)NC(=O)[C@H](CO)NC(=O)[C@H](CO)NC(=O)[C@H](Cc1c[nH]cn1)NC(=O)[C@H](CCCNC(=N)N)NC(=O)[C@H](CC(C)C)NC(=O)[C@H](Cc1ccccc1)NC(=O)[C@H](CCC(=O)O)NC(=O)[C@H](C)NC(=O)[C@H](CC(C)C)NC(=O)[C@H](CCCNC(=N)N)NC(=O)[C@H](CCC(N)=O)NC(=O)[C@@H](NC(=O)[C@H](C)NC(=O)[C@@H]1CSSC[C@H](NC(=O)[C@H](Cc2c[nH]cn2)NC(=O)[C@H](Cc2c[nH]cn2)NC(=O)[C@H](Cc2c[nH]cn2)NC(=O)CC[C@H](NC(=O)CCCCCCCCCCCCCCCCCCC(=O)O)C(=O)O)C(=O)N[C@@H](CC(N)=O)C(=O)N[C@@H]([C@@H](C)O)C(=O)N[C@@H](C)C(=O)N[C@@H]([C@@H](C)O)C(=O)N1)[C@@H](C)O)C(=O)N[C@@H](CC(C)C)C(=O)N1CCC[C@H]1C(=O)N1CCC[C@H]1C(=O)N[C@H](C(=O)N[C@@H](CC(N)=O)C(=O)N[C@H](C(=O)NCC(=O)N[C@@H](CO)C(=O)N[C@@H](CC(N)=O)C(=O)N[C@H](C(=O)N[C@@H](Cc1ccc(O)cc1)C(N)=O)[C@@H](C)O)C(C)C)[C@@H](C)O
B3: N-alpha-[(S)-4-Carboxy-4-(19-carboxynonadecanoylamino)butyryl]-His-His-[His1,Glu14,His17]-pramlintide (peptide)
peptide: {C20 diacid-γGlu}-HHHCNTATCATQRLAEFLHHSSNNFGPILPPTNVGSNTY-NH2
modifications: disulfide 4-9
SMILES: CC[C@H](C)[C@H](NC(=O)[C@@H]1CCCN1C(=O)CNC(=O)[C@H](Cc1ccccc1)NC(=O)[C@H](CC(N)=O)NC(=O)[C@H](CC(N)=O)NC(=O)[C@H](CO)NC(=O)[C@H](CO)NC(=O)[C@H](Cc1c[nH]cn1)NC(=O)[C@H](Cc1c[nH]cn1)NC(=O)[C@H](CC(C)C)NC(=O)[C@H](Cc1ccccc1)NC(=O)[C@H](CCC(=O)O)NC(=O)[C@H](C)NC(=O)[C@H](CC(C)C)NC(=O)[C@H](CCCNC(=N)N)NC(=O)[C@H](CCC(N)=O)NC(=O)[C@@H](NC(=O)[C@H](C)NC(=O)[C@@H]1CSSC[C@H](NC(=O)[C@H](Cc2c[nH]cn2)NC(=O)[C@H](Cc2c[nH]cn2)NC(=O)[C@H](Cc2c[nH]cn2)NC(=O)CC[C@H](NC(=O)CCCCCCCCCCCCCCCCCCC(=O)O)C(=O)O)C(=O)N[C@@H](CC(N)=O)C(=O)N[C@@H]([C@@H](C)O)C(=O)N[C@@H](C)C(=O)N[C@@H]([C@@H](C)O)C(=O)N1)[C@@H](C)O)C(=O)N[C@@H](CC(C)C)C(=O)N1CCC[C@H]1C(=O)N1CCC[C@H]1C(=O)N[C@H](C(=O)N[C@@H](CC(N)=O)C(=O)N[C@H](C(=O)NCC(=O)N[C@@H](CO)C(=O)N[C@@H](CC(N)=O)C(=O)N[C@H](C(=O)N[C@@H](Cc1ccc(O)cc1)C(N)=O)[C@@H](C)O)C(C)C)[C@@H](C)O
B4: N-alpha-[(S)-4-Carboxy-4-(19-carboxynonadecanoylamino)butyryl]-[His1,Glu14,His17]-pramlintide (peptide)
peptide: {C20 diacid-γGlu}-HCNTATCATQRLAEFLHHSSNNFGPILPPTNVGSNTY-NH2
modifications: disulfide 2-7; not fully specified; printed as N-alpha-[(S)-4-Carboxy-4-(19-carboxynonadecanoylamino)butyryl]-[His1,Glu14,His17]-pramlintide
B5: N-alpha-[(S)-4-Carboxy-4-(19-carboxynonadecanoylamino)butyryl]-His-[His1,Glu14,His17]-pramlintide (peptide)
peptide: {C20 diacid-γGlu}-HHCNTATCATQRLAEFLHHSSNNFGPILPPTNVGSNTY-NH2
modifications: disulfide 3-8
SMILES: CC[C@H](C)[C@H](NC(=O)[C@@H]1CCCN1C(=O)CNC(=O)[C@H](Cc1ccccc1)NC(=O)[C@H](CC(N)=O)NC(=O)[C@H](CC(N)=O)NC(=O)[C@H](CO)NC(=O)[C@H](CO)NC(=O)[C@H](Cc1c[nH]cn1)NC(=O)[C@H](Cc1c[nH]cn1)NC(=O)[C@H](CC(C)C)NC(=O)[C@H](Cc1ccccc1)NC(=O)[C@H](CCC(=O)O)NC(=O)[C@H](C)NC(=O)[C@H](CC(C)C)NC(=O)[C@H](CCCNC(=N)N)NC(=O)[C@H](CCC(N)=O)NC(=O)[C@@H](NC(=O)[C@H](C)NC(=O)[C@@H]1CSSC[C@H](NC(=O)[C@H](Cc2c[nH]cn2)NC(=O)[C@H](Cc2c[nH]cn2)NC(=O)CC[C@H](NC(=O)CCCCCCCCCCCCCCCCCCC(=O)O)C(=O)O)C(=O)N[C@@H](CC(N)=O)C(=O)N[C@@H]([C@@H](C)O)C(=O)N[C@@H](C)C(=O)N[C@@H]([C@@H](C)O)C(=O)N1)[C@@H](C)O)C(=O)N[C@@H](CC(C)C)C(=O)N1CCC[C@H]1C(=O)N1CCC[C@H]1C(=O)N[C@H](C(=O)N[C@@H](CC(N)=O)C(=O)N[C@H](C(=O)NCC(=O)N[C@@H](CO)C(=O)N[C@@H](CC(N)=O)C(=O)N[C@H](C(=O)N[C@@H](Cc1ccc(O)cc1)C(N)=O)[C@@H](C)O)C(C)C)[C@@H](C)O

Tests used:
Assay in all cases: cell-based or functional assay
[1] = target: T1, human calcitonin (a) receptor (human, UniProt P30988 25-474)
T1 sequence (looked up): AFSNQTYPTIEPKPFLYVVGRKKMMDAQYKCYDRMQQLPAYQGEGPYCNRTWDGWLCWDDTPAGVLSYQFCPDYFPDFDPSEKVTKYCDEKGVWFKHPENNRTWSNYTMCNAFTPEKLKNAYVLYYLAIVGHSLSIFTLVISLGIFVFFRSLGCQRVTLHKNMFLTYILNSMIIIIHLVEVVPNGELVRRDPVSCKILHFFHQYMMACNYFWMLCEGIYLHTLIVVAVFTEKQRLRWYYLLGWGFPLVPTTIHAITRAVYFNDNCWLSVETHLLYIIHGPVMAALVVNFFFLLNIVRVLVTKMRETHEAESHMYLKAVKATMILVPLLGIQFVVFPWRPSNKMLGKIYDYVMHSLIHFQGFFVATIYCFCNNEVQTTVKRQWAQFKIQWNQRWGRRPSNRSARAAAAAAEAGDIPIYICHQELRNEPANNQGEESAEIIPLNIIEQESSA

[2] = target: T2, rat calcitonin (a) receptor (rat, UniProt P32214 25-516)
T2 sequence (looked up): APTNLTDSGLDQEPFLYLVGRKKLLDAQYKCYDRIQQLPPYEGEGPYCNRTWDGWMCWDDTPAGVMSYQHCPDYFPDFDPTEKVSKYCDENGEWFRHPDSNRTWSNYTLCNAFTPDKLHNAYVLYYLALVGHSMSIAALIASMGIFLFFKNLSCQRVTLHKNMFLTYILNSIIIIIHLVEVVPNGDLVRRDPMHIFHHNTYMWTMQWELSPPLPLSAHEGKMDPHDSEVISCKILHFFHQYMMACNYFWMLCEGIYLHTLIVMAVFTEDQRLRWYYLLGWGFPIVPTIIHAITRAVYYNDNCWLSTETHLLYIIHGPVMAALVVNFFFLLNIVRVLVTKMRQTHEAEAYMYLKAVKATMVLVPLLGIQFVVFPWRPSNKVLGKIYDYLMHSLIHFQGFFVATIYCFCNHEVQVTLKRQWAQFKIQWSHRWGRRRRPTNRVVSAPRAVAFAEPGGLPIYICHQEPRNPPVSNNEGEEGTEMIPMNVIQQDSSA

[3] = target: T3, human amylin 3(a) receptor (human calcitonin receptor + RAMP-3) (human, UniProt P30988 25-474; O60896 24-148)
T3 sequence (looked up) 1: T1 sequence (looked up)
T3 sequence (looked up) 2: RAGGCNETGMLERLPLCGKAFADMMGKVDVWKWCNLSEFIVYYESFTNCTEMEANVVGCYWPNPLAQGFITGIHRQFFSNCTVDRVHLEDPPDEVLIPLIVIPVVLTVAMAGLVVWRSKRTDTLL

[4] = target: T4, rat amylin 3(a) receptor (rat calcitonin(a) receptor + rat RAMP3) (rat, UniProt P32214 25-516; Q9JJ73 23-147)
T4 sequence (looked up) 1: T2 sequence (looked up)
T4 sequence (looked up) 2: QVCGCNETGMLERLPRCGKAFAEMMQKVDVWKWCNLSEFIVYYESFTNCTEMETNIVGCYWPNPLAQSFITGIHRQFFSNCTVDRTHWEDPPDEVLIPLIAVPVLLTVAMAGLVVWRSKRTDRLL

Binder | CTa receptor human EC50 [1] [nM] | CTa receptor rat EC50 [2] [nM] | Amylin receptor human EC50 [3] [nM] | Amylin receptor rat EC50 [4] [nM]
B1 | 0.31 | 0.824 | 0.105 | 0.132
B2 | 0.409 | 6.76 | 0.0775 | 0.082
B3 | 0.208 | 0.962 | 0.0853 | 0.0885
B4 | 0.126 | 1.17 | 0.131 | 0.187
B5 | 0.166 | 0.221 | 0.111 | 0.147
